Reference: patent US20230375537A1

Tests used:
[1] = biological target: HER2 (as partner of the 'natural' / 'original' dissociation constants) (UniProt P04626); assay: natural dissociation constant of the bought molecule outside the sensor; method not stated
[2] = biological target: HER2 (as partner of the 'natural' / 'original' dissociation constants) (UniProt P04626); assay: natural dissociation constant of the molecule outside the sensor; method not stated

Substance | Kd [1] | Kd [2]
Anti-Her2 Affibody Molecule (anti-Her2 affibody molecule, Abcam) (designed binder) | 0.032 nM | 
Z342-EGFP-Histag (a molecule having a polyhistidine tag and an anti-HER2 affibody to which a fluorescence group EGFP is fused) (designed binder) |  | 0.106 nM
